Five molecules from US8470556B2, “Nucleic acids that encode antigen binding proteins that bind PAR-2” (Amgen Inc., priority 2007, dated 2013) can be followed below.

Usually IC50 stands for the concentration needed to halve the response being measured. Low values mean greater potency in that assay, high ones weaker potency in that assay.

For assay [1], the system named is Sprague Dawley rats. The assay is described as follows: Carrageenan paw edema in Sprague Dawley rat (plethysmography). As to conditions: antibodies IP 1.5 mg/rat, indomethacin 5 mg/kg. The assay is classed as in vivo. Here is the method:
(§1) This example describes the effects of PAR-2 antibodies on paw edema in an acute AIA model substantially as described previously. Briefly, 6-8 week old Sprague Dawley or Lewis rats (Charles River Laboratories, Wilmington, Mass.) were injected subcutaneously (SC) in the plantar region of the hind paw with 1% lambda carrageenan in one hind paw and control (saline) in the other. Blocking PAR-2 monoclonal antibody (1A1) or control (positive or negative control; see footnotes to Table 4) was administered intraperitoneally (IP) eighteen hours prior to adjuvant injection at 1.5 mg/rat (approximately 8-10 mg/kg), swelling was then measured by plethysomgraphy at selected time points. Data were expressed as volume of water in milliliters (mL) displaced per paw versus baseline measurements for that paw.
In general terms: The carrageenan paw model is a standard test of acute inflammation.

Assay [2] has as its system Lewis rats. The assay is described as follows: Acute adjuvant-induced arthritis (C/K) model, knee joint thickness. Format: in vivo. As to conditions: 0 Hr; Lewis rat; group mean ± SEM. Here is the method: This example describes acute and chronic models of arthritis. In both models, animals are anesthetized, for example by Ketamine/Xylazine mixture (mouse mix or rat mix, respectively) or isoflurane for all intraarticular (IA), periarticular (PA) injections or intradermal (ID) injections.
Joint injections, IA or PA, are targeted at either knees or hind limb paws. PA injections are equally divided across four sites surrounding the joint of interest. Paw injections are administered ID into the plantar area of the hind paw. To serve as an internal control, one knee or hind-limb paw is injected with vehicle alone or sterile PBS. Preparation of the injection area includes shaving the joint area after animals are anesthetized, and scrubbing with an iodine solution followed by an alcohol disinfectant. All articular injections are given with a 30-gauge needle or equivalent, and when needed by a gastight (i.e., Hamilton) syringe, for small injection volumes (i.e. 10 microL).
For induction of acute AIA (aAIA), animals are injected on day zero (D0) with 1-4% lambda-carrageenan and 1-4% kaolin (C/K) by IA injection in saline. Concentrations of both compounds are dependent on intended disease severity. Total injection volumes for the inducing agent are between 10-20 microL for mice and 60-80 microL for rat. Both concentration and injection volume are consistent with published methodologies (J Clin Invest. 2003; 111(1):35-41, and J Pharmacol Exp Ther. 2006; 316(3):1017-24). Alternatively, specific PAR-2 peptide agonists, or other activators of inflammation (such as trypsin, or human beta-tryptase [J Clin Invest. 2003; 111(1):35-41, J Pharmacol Exp Ther. 2006; 316(3):1017-24, J Pharmacol Sci. 2005 97(1):38-42, and Br J Pharmacol. 1999 127(5):1083-90]) or the equivalent, may be used. Concentrations used are selected for intended disease severity, and total injection volumes are appropriate to the animal being injected.
For both acute and chronic AIA studies, caliper measurements of joint diameter are taken of all joints of interest prior to any injection. Tracking of disease may include caliper measurements of joint diameter as well as flexible tape measurements of joint circumference, and visual scoring. Alternative methods (i.e., use of a plethysmometer) may also be used. Severity of cAIA is scored by one or both of the criteria shown below:
In this manner, 6-8 week old Lewis rats were injected with C/K plus treatment (or control) in the left knee, and negative control in each right knee, as for the acute model. Joint thickness was measured at set time points after treatment, using an average of three caliper readings. The change in thickness of the left knee as compared to the right knee was expressed as percent change, and is shown in Table 3 below.

The target of assay [3] is T1, N-terminal PAR-2/Fc (full length and truncated) (Homo sapiens, UniProt P55085).
T1 construct: made in house; host or cells: CHO cells (10% FCS for uncleaved; serum-free for clipped)
T1 sequence (P55085 with tags, fused parts or gaps limits assumed): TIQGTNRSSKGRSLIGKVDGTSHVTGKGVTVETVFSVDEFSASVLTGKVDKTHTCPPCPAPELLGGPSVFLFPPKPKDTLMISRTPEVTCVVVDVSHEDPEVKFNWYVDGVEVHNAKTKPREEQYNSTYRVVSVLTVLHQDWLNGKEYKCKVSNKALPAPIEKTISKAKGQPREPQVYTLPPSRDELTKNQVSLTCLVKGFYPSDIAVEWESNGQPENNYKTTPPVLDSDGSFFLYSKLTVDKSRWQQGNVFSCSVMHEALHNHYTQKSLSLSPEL
The assay is described as follows: Western blot, binding to uncleaved versus clipped N-terminal PAR-2/Fc. As to conditions: for Binding to Cleavage Site Down stream: downstream binder binds both full length and truncated PAR-2-Fc. The text has this: N-terminal PAR-2/Fc polypeptide (SEQ ID NO:6) is expressed in suitable mammalian cells such as CHO cells. Expression supernatant from CHO expression cells cultured in serum-free media contain a CHO cell trypsin-like serine protease that cleaves PAR-2/Fc at the activation Arg-Ser bond, generating the “clipped” version of the PAR-2/Fc polypeptide. CHO expression cells cultured in 10% fetal calf serum (which contains normal levels of plasma proteinase inhibitors at concentrations far in excess of the concentration of the CHO cell trypsin-like serine protease) express uncleaved N-terminal PAR-2/Fc in culture supernatants. Both clipped and uncleaved proteins are purified using methods that are suitable for isolation and purification of proteins comprising an Fc regions (for example, using a MabSelect™ resin systems, from GE Healthcare, Piscataway, N.J.)). The resultant purified Fc-constructs are analyzed by amino terminal sequence analysis (Edman degradation), size exclusion chromatrography, absorbance spectral scan, and mass spectroscopy, as needed.
To analyze binding to uncleaved versus cleaved PAR-2, various amounts of purified uncleaved and clipped N-terminal PAR2-Fc are subjected to SDS-PAGE using 8-16% polyacrylamide gradient gels (Novex gels, Invitrogen Life Technologies) in a Tris-Glycine buffer system. Gel lanes containing See Blue standards (Novex, Invitrogen Life Technologies) for molecular weight identification are also included. Following electrophoresis, proteins are transferred from gels onto nitrocellulose membranes using a Novex XCell II Blot Module (Invitrogen Life Technologies). Membranes are blocked with 1:1, Odyssey blocking buffer, OBB, (LI-COR Biosciences):TBS (Tris Buffer Saline) overnight at 4 C with shaking. Antibodies to be analyzed are diluted in 1:1 OBB:TBS at a desired final concentration for 1 hr at room temperature. Membranes are washed extensively with 0.1% Tween 20 in TBS (3-4 changes of 100 ml over ˜1 hr). Membranes are then exposed to the appropriate secondary antibody-Alexa680 (Molecular Probes, Invitrogen Life Technologies) conjugate (goat anti-rabbit IgG, or goat anti-mouse IgG) diluted 1:5000 in 1:1 (OBB:TBS) for 1 hr at room temperature. Membranes are washed as described above, and if desired, analyzed using a LI-COR Odyssey Infrared Imaging System (LI-COR Biosciences).
(§2) Several PAR-2 antibodies were tested in different assay formats; Table 2 summarizes the results. IC50 values were determined in a FLIPR assay for Ca2+ mobilization described previously; binding to the upstream region of the cleavage site versus the downstream region of the cleavage site was determined using the Western blot assay described previously.
In general terms: A western blot detects proteins with antibodies after separation by electrophoresis.

The target in assay [4] is T2, PAR-2 (Homo sapiens, UniProt P55085).
T2 sequence (P55085 26-397): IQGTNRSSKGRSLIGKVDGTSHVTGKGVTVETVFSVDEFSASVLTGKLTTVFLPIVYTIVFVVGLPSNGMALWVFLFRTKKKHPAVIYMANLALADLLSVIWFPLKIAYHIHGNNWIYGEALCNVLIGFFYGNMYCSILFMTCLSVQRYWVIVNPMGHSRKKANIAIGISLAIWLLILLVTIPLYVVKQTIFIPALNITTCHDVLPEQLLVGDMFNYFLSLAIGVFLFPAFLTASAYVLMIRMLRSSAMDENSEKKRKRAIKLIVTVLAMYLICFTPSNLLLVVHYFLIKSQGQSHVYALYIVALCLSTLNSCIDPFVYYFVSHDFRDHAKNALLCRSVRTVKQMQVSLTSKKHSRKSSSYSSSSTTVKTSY
Kind of assay: FLIPR assay for Ca2+ mobilization. The assay is classed as cell-based.
Description: Hybridoma clones thus generated are screened for reactivity with PAR-2. Initial screening of hybridoma supernatants may utilize a peptide ELISA, a whole cell ELISA and/or a cell-based assay suitable for high-throughput screening (fluorometric microvolume assay technology or FMAT, substantially as described by Fiscella, et al., Nature Biotechnology 21:302-307; 2003). Hybridomas that are positive in this screening method may be further cultured to provide larger amounts of antibody, which can then be purified as described below and screened by additional cell-based assay(s) (for example, a flash plate assay using cells co-expressing apoaequorin, a Ca2+-sensitive photoprotein, substantially as described by Le Poul et al., J. Biomol. Screen. 7(1):57-65; 2002, and PAR-2), or a fluorometric imaging plate reader (FLIPR) assay, which is used to determine changes in intracellular Ca2+ levels, substantially as described in S. Pitchford, Genetic Engineering News vol. 18, Number 15 (1998) and/or Sullivan et al., Methods in Molecular Biology vol. […]
as §2

The test system of assay [5] is Lewis rats. Kind of assay: Carrageenan paw edema in Lewis rat (plethysmography). Format: in vivo. As to conditions: IP 18 h prior to carrageenan, 1.5 mg/rat. The protocol:
as §1

For the molecule `COc1ccc2c(c1)c(CC(=O)O)c(C)n2C(=O)c1ccc(Cl)cc1` [Indomethacin, reference compound], the “Paw Edema, volume of water displaced per paw versus baseline” value (“Paw Edema … per paw versus baseline” for short) turned out to be 0.00 ± 0.00 mL in assay [1] (0 Hr), 0.26 ± 0.22 mL in assay [1] (2 Hr), 0.28 ± 0.08 mL in assay [1] (4 Hr) and 0.49 ± 0.16 mL in assay [1] (6 Hr).
In the case of SLIGRL [reference compound], the “change in thickness of the left knee as compared to the right knee, percent change” value in assay [2] turned out to be 0.00 ± 0.00%.

B1: 9B12: anti-PAR-2 monoclonal antibody; heavy SEQ ID NO: 27, light SEQ ID NO: 29 (antibody, listed as Homo sapiens, V domains shown)
VH: QVQLVESGGGVVQPGRSLRLSCAASGFTFSSYGMHWVRQAPGKGLEWVAVIWYDGSNKYYADSVKGRFTISRDNSKNTLYLQMNSLRAEDTAVYYCARDLGAAAGTGFDYWGQGTLVTVSS
VL: QSVLTQPPSVSAAPGQKVTISCSGSSSNIGNNYVSWYQQLPGTAPKLLIYDNNKRPSGIPDRFSGSKSGTSATLGITGLQTGDEADYYCGTWDSSLSAGVVFGGGTKLTVL
Turning to B1, the “Binding to Cleavage Site Down stream” value in assay [3] was “xx”. Also, the IC50 in assay [4] is greater than 1000 nM.

B2: 2C6: binding non-blocking anti-PAR2 mAb; heavy SEQ ID NO: 23, light SEQ ID NO: 25 (antibody, listed as Homo sapiens, V domains shown)
VH: QVQLVQSGAEVKKPGASVKVSCKASGYTFTGYFFHWVRQAPGQGLEWVGWINPNSGATHFAQKFQGRVTMTRDTSISTAYMELSRLRSDDTAVYYCARDGSNWNRDYGMDVWGQGTTVTVSS
VL: QSVLTQPPSASGTPGQRVTISCSGSSSNIGINHVYWYQQLPGTAPKIFIYRNNQRPSGVPDRFSGSKSGTSASLAISGLRSEDEADYYCAVWDDSLSGVVFGGGTKLTVLG
In the case of B2, the “Binding to Cleavage Site Down stream” value in assay [3] was “xx”. In addition, the “Paw Edema … per paw versus baseline” value in assay [5] (0 Hr) is reported as 0.00 ± 0.00 mL; in assay [5] (2 Hr) it was 0.22 ± 0.02 mL; in assay [5] (4 Hr), 0.22 ± 0.05 mL; in assay [5] (6 Hr), 0.32 ± 0.06 mL; in assay [5] (8 Hr), 0.51 ± 0.11 mL; in assay [1] (0 Hr), 0.00 ± 0.00 mL. The “Paw Edema … per paw versus baseline” value in assay [1] (2 Hr) was found to be 0.57 ± 0.08 mL; in assay [1] (4 Hr) it was 1.06 ± 0.16 mL; in assay [1] (6 Hr), 1.13 ± 0.08 mL. The IC50 in assay [4] was greater than 1000 nM.

B3: 1C7: anti-PAR-2 monoclonal antibody; heavy SEQ ID NO: 17, light SEQ ID NO: 19 (antibody, listed as Homo sapiens, V domains shown)
VH: EVQLVQSGAEVKKPGESLKISCKGSGYSFTSYWIGWVRQMPGKGLEWMGIIYPGDSDTRYSPSFQGQVTISADKSIRTAYLQWSSLKASDTAMYYCARHKGITGTTFYYDYGMDVWGQGTTVTVSS
VL: SYELTQPPSVSVSPGQTARITCSGEALPKQYASWYQQKPGQAPVLVIYKDSERPSGIPERFSGSSSGTTVTLTISGVQAEDEADYYCQSADSNGAYVFGTGTKVTVL
For B3, the “Binding to Cleavage Site Up stream” value in assay [3] (upstream binder binds only full-length PAR-2/Fc) is recorded as “xxx”.
